Measured values reported in paper PMC4794721, “Improved Production of Active Streptomyces griseus Trypsin with a Novel Auto-Catalyzed Strategy” (Scientific Reports, 2016).

Substrate: N=C(N)NCCCC(NC(=O)c1ccccc1)C(=O)Nc1ccc([N+](=O)[O-])cc1
Test: purified protein
Details: 50 mM Tris-HCl, pH 8.0, 37 °C (amidase assay)

B1: SGT (Streptomyces griseus trypsin) (Streptomyces griseus) (protein)
chain: VVGGTRAAQGEFPFMVRLSMGCGGALYAQDIVLTAAHCVSGSGNNTSITATGGVVDLQSSSAVKVRSTKVLQAPGYNGTGKDWALIKLAQPINQPTLKIATTTAYNQGTFTVAGWGANREGGSQQRYLLKANVPFVSDAACRSAYGNELVANEEICAGYPDTGGVDTCQGDSGGPMFRKDNADEWIQVGIVSWGYGCARPGYPGVYTEVSTFASAIASAARTL
How did the Km turn out when B1 was run?
Its Km is 7.88 ± 0.16 × 10^−2 mM.
